PMC4157346 (The Biochemical journal, 2013)

How the values were obtained:
[1] = molecular target: CXCL8-(1-66) P32G mutant, 15N-labelled (human, 15N-labelled); assay: NMR titration
[2] = molecular target: CXCL8-(1-66) truncated monomer (human); assay: NMR titration

- Kd [1]: 11 ± 1 µM
- Kd [2]: 12 ± 2 µM
Binder: LWTWFEDEFANATGMPPVEKDYSPCLVVTQTLNK [CXCR1 N-terminal domain peptide]
